Biological target: LgBiT-HaloTag
Test: luminescence saturation binding: VS-HiBiT titrated 200-0 nM against 0.2 nM fusion

Chain of LgBiT-HaloTag (chain, as listed by the source limits assumed): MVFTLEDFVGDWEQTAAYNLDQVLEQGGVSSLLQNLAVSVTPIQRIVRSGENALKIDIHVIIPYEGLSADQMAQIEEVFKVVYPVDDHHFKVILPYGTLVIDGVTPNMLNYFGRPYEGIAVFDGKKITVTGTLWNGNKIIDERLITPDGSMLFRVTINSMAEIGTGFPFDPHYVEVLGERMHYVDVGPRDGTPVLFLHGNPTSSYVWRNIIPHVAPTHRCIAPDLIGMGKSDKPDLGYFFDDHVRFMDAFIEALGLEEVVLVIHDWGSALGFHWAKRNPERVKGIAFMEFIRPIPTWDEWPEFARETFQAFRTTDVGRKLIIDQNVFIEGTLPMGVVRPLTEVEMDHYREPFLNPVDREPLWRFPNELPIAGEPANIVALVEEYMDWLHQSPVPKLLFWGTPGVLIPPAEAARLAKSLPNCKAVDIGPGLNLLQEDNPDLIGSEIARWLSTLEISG

## VSGWRLFKKIS (modifications not checked) [VS-HiBiT peptide]
  fold complementation affinity (against the VS-HiBiT/HaloTag-LgBiT configuration): 3 fold
